Results taken from patent US20110166203A1, “ANTI-HEPATITIS C VIRUS COMPOSITION” (OSAKA UNIVERSITY, priority 2008, published 2011).

Experiments:
PA28γ gene = assay: Selection of RNA interference target sequence by PA28γ expression suppressing effect; type: cell-based, human; conditions: among four target sequences from the open reading frame of the PA28γ gene
Excerpt: A DNA fragment that encodes a short hairpin RNA for knocking down the human PA28γ gene by RNA interference was designed according to the following procedure.
The following four sequences were selected as the target sequences from the open reading frame of the PA28γ gene.
The sequence of SEQ ID NO: 4 corresponds to positions 16 to 36 of the PA28γ coding region represented by SEQ ID NO: 5.

PA28γ = PA28γ detection by western blotting in shRNA-transfected Huh7 OK1 clones; type: cell-based, human; conditions: clones C5 and C7 vs Huh7 Ok1 cells and control shRNA cells
Protocol: The DNA fragment was incorporated between the BamHI and Hind III sites of a pSilencer 2.1 U6-hygro vector (Ambion; Austin, Tex.), and introduced by lipofection to Huh7 OK1 cells sensitive to the hepatitis C virus JFH1 strain. The cells were then cultured for 1 week in a 10% fetal bovine serum Dulbecco's modified Eagle's medium supplemented with 0.1 mg/mL hygromycin. The cells were cloned by limiting dilution, and two clones, named C5 and C7, with low PA28γ expression levels were selected by western blotting.
Separately, a commercially available pSilencer 2.1-U6 hygro negative control vector (Ambion) having no complementarity to human PA28γ gene was treated by the same procedure to establish single clones that had the same PA28γ expression level as the parental strain (control cells; hereinafter, also referred to as “control shRNA”).
The Huh7 Ok1 cells, the control cells, and the PA28γ knockdown cells C5 and C7 were lysed, and the lysate was subjected to SDS-polyacrylamide gel electrophoresis for the detection of PA28γ and β-actin by western blotting using anti-PA28γ antibody (Affiniti) and anti-actin antibody (Sigma Aldrich Japan).

hepatitis C virus JFH1 = assay: Virus titer of culture supernatant after JFH1 infection of PA28γ constant knockdown cells; type: cell-based; conditions: empty plasmid transfected; JFH1 MOI 0.024; 10 days culture; knockdown cells vs control cells
Protocol: The control cells (control shRNA) and PA28γknockdown cells C5 and C7 were transfected with pEFFLAGGspGBK or pEFFLAGGsPA28gammaSI plasmid. The next day, the medium was replaced with 10% fetal bovine serum Dulbecco's modified Eagle's medium supplemented with 3 μg/mL puromycin, and the cells were further cultured for 24 hours. The surviving cells were then inoculated in a 12-well plate (2.5×10^4 cells/well), and infected with hepatitis C virus JFH1 at an MOI of 0.024.
The JFH1 gene-containing plasmid pJFH1 was cut with XbaI enzyme, blunted with Mung Bean nuclease, and virus RNA was synthesized using a MEGAscript T7 kit (Ambion). The virus RNA was transfected into Huh7 OK1 cells by electroporation under the conditions 260 V and 960 μF. […] Using Huh7 OK1, the virus titer (ffu/mL) of the culture supernatant was measured according to the method of Wakita et al. (Nat. Med. 11:791-796, 2005), as follows. The Huh7 OK1 cells were infected with the culture supernatant to be measured at 37° C. for 3 hours. […]
The rabbit anti-NS5A antibody prepared by immunizing the peptide from the amino acid residues 409 to 422 of NS5A according to the method described in J. Virol. 79:13473-13482, 2005 was allowed to react with Alexa Fluor® 488-anti-rabbit IgG antibody (Molecular Probe), and the fluorescent cell foci were counted to calculate the virus titer.

HCV replicon RNA = assay: HCV replicon Renilla luciferase replication assay in control and PA28γ knockdown cells; type: cell-based, hepatitis C virus; conditions: knockdown cells C5 (KD5) vs control cells (Cntrl5), 24, 48, 96 h normalized to 4 h
Protocol: Virus replication by replicon was evaluated in the same manner except that the control cells and knockdown cells prepared in Section 1 above were used, as described in Krieger et al. (Krieger et al., J. Virol., 75:4614-4624, 2001).
A cDNA encoding Renilla luciferase was introduced between AscI and PmeI of a plasmid pFK-1389 neo/NS3-3′/NK5.1, instead of a neogene. The resulting plasmid pFK-1389 hRL/NS3-3/NK5.1 was cleaved at ScaI, and […] in vitro using a MEGAscript T7 kit (Ambion). A suspension of Huh7 cells (10×10^6 cells/mL) was prepared, and 400 μl of the suspension was mixed with 10 μg of in vitro transcription RNA. This was followed by electroporation performed under the conditions 270 V and 960 μF using a Gene Pulser™ (Bio-Rad). The electroporated cells were suspended in 25-ml medium, and inoculated in a 12-well culture plate (1 ml/well). Then, luciferase activities at hour 4, 24, 48, and 96 post infection were measured using a Renilla Luciferase assay system (Promega).
The synthesized HCV replicon RNA, and the HCV replicon GND RNA with the inactivated RNA polymerase activity were transfected into control shRNA cells and PA28γ knockdown cells C5, and luciferase activity was measured.
The measured values in each combination were normalized by dividing the values after 24, 48, and 96 hours by the value after 4 hours.

B1: shRNA against PA28γ: short hairpin RNA against target sequence SEQ ID NO: 4 (…), encoded by DNA fragment SEQ ID NO: 6 in pSilencer 2.1 U6-hygro vector (nucleic acid)
DNA: GGATCCGGTGGATCAGGAAGTGAAGTTCAAGAGACTTCACTTCCTGATCCACCTTTTTTGGAAAAGCTT
modifications: the letters are possibly those of the target site
- PA28γ expression suppressing effect (PA28γ gene): remarkable expression suppressing effect
- PA28γ expression level (PA28γ): lower PA28γ expression levels
- virus production (virus titer) (hepatitis C virus JFH1): significantly lower
- luciferase value (virus replication by replicon) (HCV replicon RNA): no difference in luciferase value
